Assay results published in the Immune Epitope Database (IEDB).
Values belong to the sequence of their own block, whether it stands above or below them.

Key:
[1] = biological target: HLA-A*01:01; experiment: IEDB peptide-MHC binding, purified MHC/competitive/fluorescence; ≥ and ≤ were set here for values at or beyond the usual limits of such assays; details: source organism: Zaire ebolavirus
[2] = biological target: HLA-A*03:01; experiment: as above; details: source organism: Zaire ebolavirus
[3] = biological target: HLA-A*11:01; experiment: as above; details: source organism: Zaire ebolavirus
[4] = biological target: HLA-A*24:02; experiment: as above; details: source organism: Zaire ebolavirus
[5] = biological target: HLA-A*02:01; experiment: IEDB peptide-MHC binding, purified MHC/competitive/fluorescence; filed as Kd, often an IC50 or EC50 that approximates it; ≥ and ≤ were set here for values at or beyond the usual limits of such assays
[6] = biological target: HLA-A*02:03; experiment: as above
[7] = biological target: HLA-A*02:11; experiment: as above
[8] = biological target: HLA-A*02:12; experiment: as above
[9] = biological target: HLA-A*02:16; experiment: as above
[10] = biological target: HLA-A*02:19; experiment: as above
[11] = biological target: HLA-A*03:01; experiment: as above
[12] = biological target: HLA-A*23:01; experiment: as above
[13] = biological target: HLA-A*24:03; experiment: as above
[14] = biological target: HLA-A*26:01; experiment: as above
[15] = biological target: HLA-A*29:02; experiment: as above
[16] = biological target: HLA-A*68:02; experiment: as above; details: source organism: Vibrio vulnificus CMCP6
[17] = biological target: HLA-A*69:01; experiment: as above
[18] = biological target: HLA-B*15:01; experiment: as above
[19] = biological target: HLA-B*15:17; experiment: as above
[20] = biological target: HLA-B*15:42; experiment: as above; details: source organism: Vibrio vulnificus CMCP6
[21] = biological target: HLA-B*18:01; experiment: as above
[22] = biological target: HLA-B*27:03; experiment: as above
[23] = biological target: HLA-B*39:01; experiment: as above
[24] = biological target: HLA-B*45:06; experiment: as above; details: source organism: Vibrio vulnificus CMCP6
[25] = biological target: HLA-B*46:01; experiment: as above
[26] = biological target: HLA-B*51:01; experiment: as above
[27] = biological target: HLA-B*57:01; experiment: as above
[28] = biological target: HLA-B*83:01; experiment: as above; details: source organism: Vibrio vulnificus CMCP6
[29] = biological target: HLA-A*02:06; experiment: as above; details: source organism: Human immunodeficiency virus 1
[30] = biological target: HLA-A*26:02; experiment: as above; details: source organism: Human immunodeficiency virus 1
[31] = biological target: HLA-C*05:01; experiment: IEDB peptide-MHC binding, purified MHC/direct/fluorescence; filed as Kd, often an IC50 or EC50 that approximates it; ≥ and ≤ were set here for values at or beyond the usual limits of such assays; details: source organism: Salmonella enterica subsp. enterica serovar Typhi str. CT18
[32] = source organism: Vibrio vulnificus CMCP6
[33] = source organism: Human immunodeficiency virus 1
[34] = source organism: Salmonella enterica subsp. enterica serovar Typhi

Sequence: ATDVPSATK
IC50 [1]: 12 µM
IC50 [2]: 28.7 µM
IC50 [3]: 2140 nM
IC50 [4]: 64.6 µM

Sequence: LEMNDAPTA
Kd [5, 32]: ≥ 20000 nM
Kd [6, 32]: ≥ 20 µM
Kd [7, 32]: ≥ 20000 nM
Kd [8, 32]: ≥ 20 µM
Kd [9, 32]: ≥ 20 µM
Kd [10, 32]: ≥ 20 µM
Kd [11, 32]: ≥ 20 µM
Kd [12, 32]: ≥ 20 µM
Kd [13, 32]: ≥ 20 µM
Kd [14, 32]: ≥ 20 µM
Kd [15, 32]: ≥ 20 µM
Kd [16]: ≥ 20 µM
Kd [17, 32]: ≥ 20 µM
Kd [18, 32]: ≥ 20 µM
Kd [19, 32]: ≥ 20 µM
Kd [20]: ≥ 5 µM
Kd [21, 32]: 240 nM
Kd [22, 32]: ≥ 20 µM
Kd [23, 32]: ≥ 20 µM
Kd [24]: ≥ 5 µM
Kd [25, 32]: ≥ 20 µM
Kd [26, 32]: ≥ 20 µM
Kd [27, 32]: ≥ 20 µM
Kd [28]: ≥ 5 µM

Sequence: LFNTIATLY
Kd [5, 33]: 1070 nM
Kd [6, 33]: ≥ 20 µM
Kd [29]: 1290 nM
Kd [30]: ≥ 20 µM
Kd [19, 33]: 2.51 µM

Sequence: NTDEIPELI
Kd [31]: 114 nM
Kd [5, 34]: ≥ 20000 nM
Kd [6, 34]: ≥ 20 µM
Kd [7, 34]: 3.1 nM
Kd [8, 34]: ≥ 20 µM
Kd [9, 34]: ≥ 20 µM
Kd [10, 34]: ≥ 20 µM
Kd [11, 34]: ≥ 20 µM
Kd [12, 34]: ≥ 20 µM
Kd [13, 34]: ≥ 20 µM
Kd [14, 34]: ≥ 20 µM
Kd [15, 34]: ≥ 20 µM
Kd [18, 34]: ≥ 20 µM
Kd [19, 34]: ≥ 20 µM
Kd [21, 34]: ≥ 20000 nM
Kd [22, 34]: ≥ 20 µM
Kd [23, 34]: ≥ 20 µM
Kd [25, 34]: ≥ 20 µM
Kd [26, 34]: ≥ 20 µM
Kd [27, 34]: ≥ 20 µM

Kd ([5]; source organism: Homo sapiens): 26.5 nM
Kd ([6]; source organism: Homo sapiens): 1.12 µM
Kd ([7]; source organism: Homo sapiens): 9.3 nM
Kd ([8]; source organism: Homo sapiens): 0.161 µM
Kd ([17]; source organism: Homo sapiens): ≥ 20 µM
Sequence: VVPYEPPEV
